In the supplement of paper PMC9112550, “Optimization of the antimicrobial peptide Bac7 by deep mutational scanning” (BMC Biology, 2022):

system: Escherichia coli TOP10; experiment: shrunken log2 fold change of peptide-encoding DNA abundance (4.5 h post-induction vs induction); higher = less antimicrobial activity (less host growth inhibition); conditions: time post-induction: 4.5 h; library: site-saturation at positions 5, 18, 19, 20
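Further: peptides expressed intracellularly from a pBAD plasmid library in pooled LB shake-flask culture, induced with 0.3% L-arabinose, DNA abundance read by NGS, three biological replicates, DESeq2 with apeglm shrinkage.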

Going from RRIRWRPPRLPRPRPRPDSKPRP to RRIRARPPRLPRPRPRPFMRPRP, the “shrunken log2 fold change” value rises from -0.133 to 0.59.

Compared with RRIRCRPPRLPRPRPRPDDKPRP, RRIRHRPPRLPRPRPRPKGAPRP is higher in “shrunken log2 fold change” value: -0.739 for the first, -0.011 for the second.

RRIRKRPPRLPRPRPRPQNTPRP and RRIRDRPPRLPRPRPRPKAVPRP are within 0.2 log units of each other in “shrunken log2 fold change” value: 0.00556 for the first, -0.00884 for the second.

Going from RRIRPRPPRLPRPRPRPRGDPRP to RRIRKRPPRLPRPRPRPWFMPRP, the “shrunken log2 fold change” value falls from 1.81 to -0.202.

Compared with RRIRARPPRLPRPRPRPARFPRP, RRIRCRPPRLPRPRPRPHVIPRP is lower in “shrunken log2 fold change” value: 1.03 for the first, -0.245 for the second.

RRIRARPPRLPRPRPRPGYVPRP and RRIRLRPPRLPRPRPRPADGPRP are within 0.2 log units of each other in “shrunken log2 fold change” value: -0.0339 for the first, -0.082 for the second.

Compared with RRIRFRPPRLPRPRPRPRWQPRP, RRIRSRPPRLPRPRPRPYTHPRP is lower in “shrunken log2 fold change” value: 0.229 for the first, -1.3 for the second.

Going from RRIRIRPPRLPRPRPRPQELPRP to RRIRPRPPRLPRPRPRPIMTPRP, the “shrunken log2 fold change” value rises from -0.169 to 0.0516.

RRIRWRPPRLPRPRPRPGLKPRP and RRIRSRPPRLPRPRPRPPCVPRP are within 0.2 log units of each other in “shrunken log2 fold change” value: -0.109 for the first, 0.00342 for the second.

RRIRQRPPRLPRPRPRPPWTPRP and RRIRDRPPRLPRPRPRPGNWPRP are within 0.2 log units of each other in “shrunken log2 fold change” value: 0.0238 for the first, -0.0358 for the second.

Going from RRIRPRPPRLPRPRPRPCETPRP to RRIRGRPPRLPRPRPRPLGTPRP, the “shrunken log2 fold change” value rises from 0.0508 to 0.736.

Compared with RRIRIRPPRLPRPRPRPVMCPRP, RRIRCRPPRLPRPRPRPVIAPRP is lower in “shrunken log2 fold change” value: 0.062 for the first, -0.2 for the second.

Going from RRIRDRPPRLPRPRPRPKSRPRP to RRIRTRPPRLPRPRPRPYGLPRP, the “shrunken log2 fold change” value rises from 0.0765 to 4.72.

RRIRSRPPRLPRPRPRPNCTPRP and RRIRHRPPRLPRPRPRPLHNPRP are within 0.2 log units of each other in “shrunken log2 fold change” value: -0.531 for the first, -0.602 for the second.

Compared with RRIRCRPPRLPRPRPRPLEAPRP, RRIRYRPPRLPRPRPRPSYNPRP is lower in “shrunken log2 fold change” value: 0.203 for the first, -0.676 for the second.

Going from RRIRIRPPRLPRPRPRPKPMPRP to RRIRWRPPRLPRPRPRPRTDPRP, the “shrunken log2 fold change” value rises from -0.0736 to 0.342.

RRIRLRPPRLPRPRPRPPCCPRP and RRIRYRPPRLPRPRPRPIQDPRP are within 0.2 log units of each other in “shrunken log2 fold change” value: -0.0934 for the first, -0.00166 for the second.

Compared with RRIRPRPPRLPRPRPRPTSVPRP, RRIRGRPPRLPRPRPRPRSWPRP is higher in “shrunken log2 fold change” value: 0.181 for the first, 1.19 for the second.

Compared with RRIRQRPPRLPRPRPRPPNTPRP, RRIRNRPPRLPRPRPRPFVHPRP is lower in “shrunken log2 fold change” value: -0.0954 for the first, -0.568 for the second.

Compared with RRIRSRPPRLPRPRPRPEETPRP, RRIRHRPPRLPRPRPRPFWFPRP is lower in “shrunken log2 fold change” value: -0.00674 for the first, -0.382 for the second.

Compared with RRIRTRPPRLPRPRPRPETAPRP, RRIRQRPPRLPRPRPRPKMVPRP is lower in “shrunken log2 fold change” value: 0.4 for the first, -0.0201 for the second.

Compared with RRIRTRPPRLPRPRPRPIFCPRP, RRIRNRPPRLPRPRPRPSGPPRP is higher in “shrunken log2 fold change” value: -0.327 for the first, -0.0894 for the second.

First: RRIRIRPPRLPRPRPRPTRRPRP
Second: RRIRERPPRLPRPRPRPYRHPRP
The “shrunken log2 fold change” value of the first is higher: 0.298 for the first, -0.0262 for the second.

First: RRIRARPPRLPRPRPRPNIDPRP
Second: RRIRDRPPRLPRPRPRPHIPPRP
The “shrunken log2 fold change” value of the first is lower: -0.0883 for the first, 2.08 for the second.

Going from RRIRWRPPRLPRPRPRPCHCPRP to RRIRMRPPRLPRPRPRPGHRPRP, the “shrunken log2 fold change” value rises from -0.102 to 1.35.

Compared with RRIRWRPPRLPRPRPRPMFCPRP, RRIRYRPPRLPRPRPRPASLPRP is lower in “shrunken log2 fold change” value: -0.0733 for the first, -0.662 for the second.

RRIRTRPPRLPRPRPRPSPGPRP and RRIRARPPRLPRPRPRPCSEPRP are within 0.2 log units of each other in “shrunken log2 fold change” value: 0.103 for the first, 0.244 for the second.

Compared with RRIRMRPPRLPRPRPRPFFMPRP, RRIRFRPPRLPRPRPRPKGCPRP is higher in “shrunken log2 fold change” value: -0.121 for the first, 0.418 for the second.

Compared with RRIRSRPPRLPRPRPRPWNMPRP, RRIRQRPPRLPRPRPRPRQWPRP is higher in “shrunken log2 fold change” value: -0.077 for the first, 0.254 for the second.

Compared with RRIRARPPRLPRPRPRPTEFPRP, RRIRCRPPRLPRPRPRPYPKPRP is lower in “shrunken log2 fold change” value: 0.368 for the first, 0.0488 for the second.

First: RRIRVRPPRLPRPRPRPVGNPRP
Second: RRIRCRPPRLPRPRPRPPSQPRP
The “shrunken log2 fold change” value of the first is lower: -0.129 for the first, 0.355 for the second.

First: RRIRLRPPRLPRPRPRPTFTPRP
Second: RRIRSRPPRLPRPRPRPYRAPRP
The “shrunken log2 fold change” value of the first is lower: -0.346 for the first, -0.019 for the second.

Compared with RRIRGRPPRLPRPRPRPVFEPRP, RRIRYRPPRLPRPRPRPKITPRP is lower in “shrunken log2 fold change” value: 1.16 for the first, -0.57 for the second.

First: RRIRFRPPRLPRPRPRPISIPRP
Second: RRIRMRPPRLPRPRPRPTFMPRP
The “shrunken log2 fold change” value of the first is lower: -0.697 for the first, 0.154 for the second.

First: RRIRKRPPRLPRPRPRPGFSPRP
Second: RRIRCRPPRLPRPRPRPRMFPRP
The “shrunken log2 fold change” value of the first is higher: 0.297 for the first, 0.0907 for the second.

Going from RRIRMRPPRLPRPRPRPVMNPRP to RRIRCRPPRLPRPRPRPAIGPRP, the “shrunken log2 fold change” value falls from 0.196 to -0.135.

RRIRRRPPRLPRPRPRPQEKPRP and RRIRDRPPRLPRPRPRPPCTPRP are within 0.2 log units of each other in “shrunken log2 fold change” value: 0.0332 for the first, 0.00986 for the second.

RRIRVRPPRLPRPRPRPDFQPRP and RRIRQRPPRLPRPRPRPFLWPRP are within 0.2 log units of each other in “shrunken log2 fold change” value: -0.163 for the first, -0.0488 for the second.

RRIRIRPPRLPRPRPRPNGAPRP and RRIRDRPPRLPRPRPRPPYVPRP are within 0.2 log units of each other in “shrunken log2 fold change” value: 0.0157 for the first, -0.0635 for the second.

RRIRDRPPRLPRPRPRPMKRPRP and RRIRYRPPRLPRPRPRPFHWPRP are within 0.2 log units of each other in “shrunken log2 fold change” value: 0.108 for the first, 0.0011 for the second.

Compared with RRIRGRPPRLPRPRPRPLMAPRP, RRIRFRPPRLPRPRPRPMYNPRP is lower in “shrunken log2 fold change” value: 1.39 for the first, -0.294 for the second.

First: RRIRGRPPRLPRPRPRPAREPRP
Second: RRIRDRPPRLPRPRPRPAKTPRP
The “shrunken log2 fold change” value of the first is higher: 0.38 for the first, 0.152 for the second.

First: RRIRDRPPRLPRPRPRPMNQPRP
Second: RRIRPRPPRLPRPRPRPWDCPRP
The “shrunken log2 fold change” value of the first is lower: -0.334 for the first, -0.0719 for the second.

RRIRARPPRLPRPRPRPIQPPRP and RRIRFRPPRLPRPRPRPDVHPRP are within 0.2 log units of each other in “shrunken log2 fold change” value: -0.0587 for the first, -0.179 for the second.

Compared with RRIRFRPPRLPRPRPRPKTRPRP, RRIRTRPPRLPRPRPRPHTLPRP is lower in “shrunken log2 fold change” value: 0.277 for the first, -0.792 for the second.

First: RRIRVRPPRLPRPRPRPDYAPRP
Second: RRIRGRPPRLPRPRPRPWCPPRP
The “shrunken log2 fold change” value of the first is lower: -0.0204 for the first, 0.236 for the second.

Going from RRIRFRPPRLPRPRPRPTNQPRP to RRIRTRPPRLPRPRPRPAPCPRP, the “shrunken log2 fold change” value rises from -0.259 to 0.18.

RRIRRRPPRLPRPRPRPNHPPRP and RRIRRRPPRLPRPRPRPCDVPRP are within 0.2 log units of each other in “shrunken log2 fold change” value: -0.0297 for the first, -0.0838 for the second.

Compared with RRIRSRPPRLPRPRPRPWMLPRP, RRIRWRPPRLPRPRPRPFNAPRP is lower in “shrunken log2 fold change” value: -0.14 for the first, -0.342 for the second.

RRIRARPPRLPRPRPRPGSHPRP and RRIRIRPPRLPRPRPRPFWKPRP are within 0.2 log units of each other in “shrunken log2 fold change” value: 0.101 for the first, 0.0187 for the second.

RRIRERPPRLPRPRPRPMVMPRP and RRIRSRPPRLPRPRPRPSGYPRP are within 0.2 log units of each other in “shrunken log2 fold change” value: -0.368 for the first, -0.443 for the second.

First: RRIRWRPPRLPRPRPRPRRGPRP
Second: RRIRERPPRLPRPRPRPCQFPRP
The “shrunken log2 fold change” value of the first is higher: 0.528 for the first, -0.131 for the second.

RRIRFRPPRLPRPRPRPLELPRP and RRIRKRPPRLPRPRPRPDYNPRP are within 0.2 log units of each other in “shrunken log2 fold change” value: 0.0344 for the first, -0.0745 for the second.

Going from RRIRSRPPRLPRPRPRPFGNPRP to RRIRYRPPRLPRPRPRPNLFPRP, the “shrunken log2 fold change” value falls from -0.00151 to -0.676.

In the case of RRIRLRPPRLPRPRPRPHHCPRP, the “shrunken log2 fold change” value is reported as -0.301.
